This note sets out measurements from patent US20040071656A1 (published 2004).

The target in assay [1] is T1, Recombinant human His6-tagged Hsp70 (human, UniProt P0DMV8 2-641).
T1 construct: mature; also called His6-Hsp70; human Hsp70
In words: titration of peptide C in the GST-CD40 pull-down of His6-Hsp70-ADP, quantified immunoblot. The protocol: For binding assays with recombinant Hsp70 and its domains, 3 μM His6-Hsp70 or its His6-tagged domains were incubated with 2 mM ATP, 2 mM ADP or 2 mM ADP and 28 μM peptide C in 50 μl binding buffer (10 mM MOPS/KOH, pH 7.2, 150 mM KCl and 3 mM MgCl2) for 30 min at 37° C. In competition experiments binding was probed with either a 10-fold excess of Hsp70, the two domains, or DnaK, or with a 5-fold excess of Hip or Bag 1 for 10 min at 0° C. To this end, Hsp70, N70, C70 and DnaK were preincubated with ADP, ATP and peptide C as described above. For comparison of CD40 binding of Hsp70 and its N-terminal domain, Hsp70 was preincubated in the presence or absence (mock treatment) of a 30-fold molar excess of peptide C. 3 μM of GST or GST-CD40 was added to the samples and incubated for 20 min at 16° C. For titration of peptide C, 5- to 50-fold excess of peptide C (15-150 μM) was added to the preincubation of Hsp70. Thereafter the samples were combined with 20 μl of 1% BSA-treated Glutathione Sepharose 4 Fast Flow and incubated in the presence of 2 mM DTT for another 20 min at 16° C. […] 10 μl of the eluates were subjected to SDS-PAGE and analyzed by immunoblotting using a Penta-His-antibody (Quiagen). Blot signals were quantified by Quantity One (Biorad).

Assay [2] concerns the target T2, Biotinylated recombinant Hsp70 (human, UniProt P0DMV8 2-641).
T2 construct: mature; also called biotinylated Hsp70; biotin-labeled Hsp70; not shown: His tag
The experiment in a line: fluorescence microscopy on LPS-stimulated ANA1 cells. The protocol: ANA-1 cells were cultured in VLE-RPMI 1640 (Biochrom), supplemented with 10% FCS, 2 mM L-glutamine and antibiotics. For fluorescence microscopy, ANA1 cells were either stimulated with LPS (20 μg/ml, Sigma, Germany), or kept in an LPS-free medium (mock treatment) for 7 h. After stimulation, cells were harvested and incubated with 100 nM biotinylated Hsp70, biotinylated GST, or Hsp70/peptide C-biotin complex for 30 min at 0° C. in VLE-RPMI 1640. After incubation cells were processed for staining with streptavidin-TRITC (Sigma, Germany), fixed with paraformaldehyde and analyzed by fluorescence microscopy (Axiovert 35, Zeiss) as described (Sondermann et al., 2000). […] Twenty-four h post-transfection cells were incubated with 250 nM biotinylated Hsp70, biotinylated GST or Hsp70/peptide C-biotin complex for 30 min at 0° C. in DMEM, fixed, stained with streptavidin-TRITC (Sigma, Germany), and analyzed by fluorescence microscopy as described (Sondermann et al., 2000, idem). […] Stably transfected cell lines were analyzed by immunoblotting for CD40 expression using an anti-CD40 antibody (CSA180, Stressgen). […]

T1 sequence (P0DMV8 2-641): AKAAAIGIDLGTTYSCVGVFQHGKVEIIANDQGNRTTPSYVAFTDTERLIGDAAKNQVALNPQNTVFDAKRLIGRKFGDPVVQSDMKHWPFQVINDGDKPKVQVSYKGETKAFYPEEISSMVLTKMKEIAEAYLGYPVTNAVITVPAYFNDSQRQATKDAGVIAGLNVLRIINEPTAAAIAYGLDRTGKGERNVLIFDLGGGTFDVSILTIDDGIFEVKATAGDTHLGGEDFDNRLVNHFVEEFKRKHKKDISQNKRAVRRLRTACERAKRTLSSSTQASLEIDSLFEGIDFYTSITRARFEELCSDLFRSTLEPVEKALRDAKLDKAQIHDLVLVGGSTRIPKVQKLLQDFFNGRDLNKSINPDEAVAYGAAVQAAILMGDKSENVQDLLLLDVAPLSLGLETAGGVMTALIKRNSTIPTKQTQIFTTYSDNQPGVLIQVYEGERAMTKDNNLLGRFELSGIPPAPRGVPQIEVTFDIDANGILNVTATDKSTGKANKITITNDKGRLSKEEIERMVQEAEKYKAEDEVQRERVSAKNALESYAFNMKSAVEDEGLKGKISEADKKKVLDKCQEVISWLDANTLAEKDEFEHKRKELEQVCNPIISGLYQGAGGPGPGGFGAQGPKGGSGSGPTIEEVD
T2 sequence (P0DMV8 2-641): as above

B1: Peptide C (GCEVFGLGWRSYKH) (peptide)
peptide: GCEVFGLGWRSYKH
notes: Synthetic Hsp70 substrate peptide; also called peptide substrate; substrate peptide
For B1, the “ka (saturable effect of peptide C on binding of Hsp70-ADP to CD40)” value in assay [1] is ~30 µM.

B2: Endogenous CD40 of LPS-stimulated murine ANA1 macrophage cells (receptor, UniProt P27512 20-289, looked up)
chain: LGQCVTCSDKQYLHDGQCCDLCQPGSRLTSHCTALEKTQCHPCDSGEFSAQWNREIRCHQHRHCEPNQGLRVKKEGTAESDTVCTCKEGQHCTSKDCEACAQHTPCIPGFGVMEMATETTDTVCHPCPVGFFSNQSSLFEKCYPWTSCEDKNLEVLQKGTSQTNVICGLKSRMRALLVIPVVMGILITIFGVFLYIKKVVKKPKDNEILPPAARRQDPQEMEDYPGHNTAAPVQETLHGCQPVTQEDGKESRISVQERQVTDSIALRPLV
notes: whole, on cells
On to B2, for which the binding result in assay [2] is given as “binds”.
